The values below come from article PMC9995517 (2023).

For this assay, the target named is F-actin (preassembled filaments of rabbit skeletal muscle actin) (rabbit, UniProt P68135 1-377).

For orientation: Kd means the constant that tells how readily two partners part at equilibrium.

Where a chain is given by its changes, count along the chain named. Numbers in names are those of the source.

B1: tyrosyl-tRNA synthetase E196K (CMT-causing mutant), recombinant Xpress-6xHis tagged (His-YARS1^E196K) (enzyme)
chain: MGDAPSPEEKLHLITRNLQEVLGEEKLKEILKERELKIYWGTATTGKPHVAYFVPMSKIADFLKAGCEVTILFADLHAYLDNMKAPWELLELRVSYYENVIKAMLESIGVPLEKLKFIKGTDYQLSKEYTLDVYRLSSVVTQHDSKKAGAEVVKQVEHPLLSGLLYPGLQALDEEYLKVDAQFGGIDQRKIFTFAKKYLPALGYSKRVHLMNPMVPGLTGSKMSSSEEESKIDLLDRKEDVKKKLKKAFCEPGNVENNGVLSFIKHVLFPLKSEFVILRDEKWGGNKTYTAYVDLEKDFAAEVVHPGDLKNSVEVALNKLLDPIREKFNTPALKKLASAAYPDPSKQKPMAKGPAKNSEPEEVIPSRLDIRVGKIITVEKHPDADSLYVEKIDVGEAEPRTVVSGLVQFVPKEELQDRLVVVLCNLKPQKMRGVESQGMLLCASIEGINRQVEPLDPPAGSAPGEHVFVKGYEKGQPDEELKPKKKVFEKLQADFKISEECIAQWKQTNFMTKLGSISCKSLKGGNIS
Consider B1, for which the affinity, expressed as Kd, was 800 nM.

B2: tyrosyl-tRNA synthetase, wild type, recombinant Xpress-6xHis tagged (His-YARS1^WT) (enzyme)
chain: B1 chain with K196E
B2 returned a dissociation constant (Kd) of 750 nM.
